Measured values as given in publication PMC3971453, “Crystallographic structure of the turbine C-ring from spinach chloroplast F-ATP synthase” (Bioscience Reports, 2014).

Biological target: the molecule itself
Assay: crystal structure; crystals grown from the entire CF1FO-ATP synthase (18 mg/ml), vapour diffusion, 33% (v/v) PEG 550 MME, 0.05 M sodium acetate pH 4.3; only the c-ring in the crystal; molecular replacement with PDB 2W5J; refined to 6.0 Å

B1: subunit c of the CF1FO-ATP synthase from spinach chloroplasts (natural protein, spinach (Spinacea oleracea L.), UniProt P69447 1-81, looked up)
chain: MNPLIAAASVIAAGLAVGLASIGPGVGQGTAAGQAVEGIARQPEAEGKIRGTLLLSLAFMEALTIYGLVVALALLFANPFV
notes: ATP synthase subunit c (subunit III), chloroplastic, Spinacia oleracea; native protein from the tissue; the last four C-terminal amino acids are not visible in the electron density map; Native, untagged protein; Homo-oligomeric ring of 14 copies; also called subunit III; c-ring; source: the c-ring alone was left in the crystal; copies: 14
B1 was tested, and the “stoichiometry N” value was 14.
